In patent publication US10801027B2, “Inhibitors of SRSF1 to treat neurodegenerative disorders” (University of Sheffield, priority 2016, dated 2020):
Residue numbers refer to the chain shown, from its start. Values belong to the molecule of their own block, whether it stands above or below them.

Experiments:
[1] = MND patients; cited from earlier work
[2] = test system: poly-Gly-Pro and poly-Gly-Ala DPRs; experiment: Western blot of RAN-translated DPRs in N2A cells; type: cell-based, mouse; settings: G4C2×38 or C4G2×39 constructs, 72 h
Protocol: Neuro-2a (ATCC) cells were cultured in Dulbecco's Modified Eagle Medium (Sigma) supplemented with 10% fetal bovine serum [FBS] (Gibco), 5 U/ml Penstrep (Lonza) and 5 mM sodium pyruvate. Cells were maintained in a […] incubator with 5% CO2. 75,000 Neuro-2a cells were split into each well of 24-well plates and transfected for 72 h with 500 ng pcDNA6.2-GW/EmGFP-Control miR RNAi (ThermoFisher) or pcDNA6.2-GW/EmGFP-mouse SRSF1 miR1+2 RNAi and 200 ng pcDNA 3.1/RAN-G4C2×38-sense or RAN-C4G2×39-antisense using 3 μg PEI/1 μg DNA and one tenth medium volume OptiMEM (ThermoFisher).
HEK cells were transfected for 72 h with 650 ng pcDNA6.2-GW/EmGFP-Control miRNA, pCDNA6.2-GW/EmGFP-human SRSF1 miR1+2 RNAi or LV-EmGFP-human SRSF1 miR1+2 RNAi constructs and 50 ng p3×FLAG/human-SRSF1 using 3.5 μg PEI/ml media and one tenth medium volume of OptiMEM. Neuro-2a cells were split into each well of 24-well plates (75,000 cells/well) and transfected for 72 h with 350 ng pcDNA6.2-GW/EmGFP-Control miR RNAi (ThermoFisher), pcDNA6.2-GW/EmGFP-mouse SRSF1 miR1+2 RNAi, p3×FLAG, p3×FLAG/SRSF1 (11-196), p3×FLAG/SRSF1 (11-196)-m2 or p3×FLAG/SRSF1 (11-196)-m4 and 350 ng pcDNA 3.1/RAN-G4C2×38-sense or RAN-C4G2×39-antisense using 3 μg PEI/1 μg DNA and one tenth medium volume OptiMEM.
Proteins were extracted from HEK or Neuro-2a cells 72 hours after transfection. […] Protein extracts were quantified using Bradford Reagent (BioRAD), resolved by SDS-PAGE, electroblotted onto nitrocellulose membrane and probed using the relevant primary antibody. […] (kindly received from Prof Stuart Pickering Brown) primary antibodies were detected with horseradish peroxidase (HRP)-conjugated rabbit secondary antibody [1:5000 dilution] […] (kindly provided from Prof Dieter Edbauer) primary antibodies were detected using HRP-conjugated mouse secondary antibody [1:5000 dilution] […] For dot blot analysis, 50 μg total protein extracts prepared in ice-cold lysis buffer were loaded onto a nitrocellulose membrane using a microfiltration apparatus (Biorad) and analysed by western immunoblotting as previously described.

NXF1 = molecular target: T1, NXF1 (Mus musculus, UniProt Q99JX7); experiment: Anti-FLAG co-immunoprecipitation of endogenous NXF1 in N2A cells; type: binding; settings: FLAG-tagged protein, 48 h
T1 construct: endogenous in cells; host or cells: Neuro-2a (N2A)
T1 sequence (Q99JX7 1-618): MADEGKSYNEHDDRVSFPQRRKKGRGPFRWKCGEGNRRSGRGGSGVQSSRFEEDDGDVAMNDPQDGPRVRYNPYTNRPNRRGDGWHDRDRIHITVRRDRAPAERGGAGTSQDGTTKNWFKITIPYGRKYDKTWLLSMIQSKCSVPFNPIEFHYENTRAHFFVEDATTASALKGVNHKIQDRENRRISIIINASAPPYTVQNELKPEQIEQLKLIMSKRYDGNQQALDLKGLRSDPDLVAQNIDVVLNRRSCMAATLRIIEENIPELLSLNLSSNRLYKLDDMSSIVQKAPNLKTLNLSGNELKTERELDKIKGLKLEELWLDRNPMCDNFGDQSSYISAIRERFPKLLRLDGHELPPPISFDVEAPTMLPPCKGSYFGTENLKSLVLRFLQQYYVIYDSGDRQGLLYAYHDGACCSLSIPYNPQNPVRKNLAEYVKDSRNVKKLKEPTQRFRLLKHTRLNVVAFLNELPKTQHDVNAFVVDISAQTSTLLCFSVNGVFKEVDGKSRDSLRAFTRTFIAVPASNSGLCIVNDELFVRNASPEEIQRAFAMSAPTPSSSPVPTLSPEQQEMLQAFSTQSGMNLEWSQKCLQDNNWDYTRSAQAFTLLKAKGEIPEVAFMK
Protocol: Cells were split into 1×10 cm plates/treatment (1.5×10^6 cells/plate) and transfected with 15 μg p3×FLAG, p3×FLAG/SRSF1 (11-196), p3×FLAG/SRSF1 (11-196)-m2 or p3×FLAG/SRSF1(11-196)-m4 using 3 μg PEI/1 μg DNA and one tenth medium volume OptiMEM.
Proteins were extracted from Neuro-2a cells 48 hours after transfection. Cells were briefly washed in ice cold PBS, scraped into 500 μl ice cold lysis buffer, passed through a 21G gauge needle 10 times and left to lyse on ice for 10 minutes. Lysed cells were cleared by centrifugation at maximum speed at 4° C. for five minutes and protein extracts were quantified using Bradford Reagent. 2 mg of total protein in 1 ml lysis buffer was incubated with 30 μl anti-FLAG® M2 affinity resin slurry (Sigma A2220) (which had been blocked overnight with 1% BSA in IP lysis buffer) for 2 hours at 4° C. on a rotating wheel. […] 30 μg total protein and 15 μl captured protein complexes were resolved by SDS-PAGE, electroblotted onto nitrocellulose membrane and probed using FLAG, NXF1 clone 53H8 [1:2000] (Abcam ab50609) and […]-tubulin.

Molecule: Nc1nc2ccc(OC(F)(F)F)cc2s1 [riluzole]
life extension [1]: around 6 months

co-immunoprecipitation of endogenous NXF1 (NXF1): specifically immunoprecipitated
B1: SRSF1-m2: FLAG-tagged SRSF1 11-196 double R117,118A mutant (protein)
chain: AGNNDCRIYVGNLPPDIRTKDIEDVFYKYGAIRDIDLKNRRGGPPFAFVEFEDPRDAEDAVYGRDGYDYDGYRLRVEFPRSGRGTGRGGGGGGGGGAPRGRYGPPSAASENRVVVSGLPPSGSWQDLKDHMREAGDVCYADVYRDGTGVVEFVRKEDMTYAVRKLDNTKFRSHEGETAYIRVKVDG
modifications: left off: small tags and cut ends
notes: FLAG-tagged SRSF1 11-196 double R117,118A mutant
effect on RAN translation / production of sense and antisense DPRs [2]: little effect

co-immunoprecipitation of endogenous NXF1 (NXF1): specifically immunoprecipitated
B2: SRSF1 11-196 wild type: FLAG-tagged SRSF1 amino-acids 11-196 wild type (protein)
chain: B1 chain with A107R, A108R
modifications: left off: small tags and cut ends
notes: FLAG-tagged SRSF1 amino-acids 11-196 wild type
effect on RAN translation / production of sense and antisense DPRs [2]: no
